This note sets out measurements from US20200190186A1.

pEC50: −log10 of the molar value.

As usually defined, the pEC50 is the EC50 on a negative log10 scale, so that one unit is a factor of ten. Lower therefore signals a high EC50.

The target of assay [1] is mouse TIM3 (mouse) (UniProt Q8VIM0). Put plainly: binding to activated mouse T cells, compared with TIM3.18 on human TIM-3.
The target is the same in assay [2]. Put plainly: binding to activated mouse T cells; method not stated.

Sequence of mouse TIM3 (mouse) (Q8VIM0 20-281): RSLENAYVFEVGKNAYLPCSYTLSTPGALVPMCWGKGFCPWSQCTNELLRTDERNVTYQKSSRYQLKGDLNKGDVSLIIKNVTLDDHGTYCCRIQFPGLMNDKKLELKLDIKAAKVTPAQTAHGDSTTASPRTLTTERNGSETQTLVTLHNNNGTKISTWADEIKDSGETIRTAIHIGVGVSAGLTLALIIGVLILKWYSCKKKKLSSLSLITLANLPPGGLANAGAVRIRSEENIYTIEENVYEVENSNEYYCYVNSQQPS

“RMT3-23, rat anti-mouse TIM-3 commercial antibody (Bio-X-Cell)”: in the assay with mouse TIM3 (mouse) [1], the fold weaker EC50 than TIM3.18 on human TIM-3 was determined as 17 fold. The pEC50 with mouse TIM3 (mouse) [2] is 8.77.
